The numbers were not newly measured in PMC8799529, which cites them from elsewhere.

The data set deals with p38 MAPK (Homo sapiens) (UniProt Q16539).
UniProt Q16539, sequence (Q16539 2-360): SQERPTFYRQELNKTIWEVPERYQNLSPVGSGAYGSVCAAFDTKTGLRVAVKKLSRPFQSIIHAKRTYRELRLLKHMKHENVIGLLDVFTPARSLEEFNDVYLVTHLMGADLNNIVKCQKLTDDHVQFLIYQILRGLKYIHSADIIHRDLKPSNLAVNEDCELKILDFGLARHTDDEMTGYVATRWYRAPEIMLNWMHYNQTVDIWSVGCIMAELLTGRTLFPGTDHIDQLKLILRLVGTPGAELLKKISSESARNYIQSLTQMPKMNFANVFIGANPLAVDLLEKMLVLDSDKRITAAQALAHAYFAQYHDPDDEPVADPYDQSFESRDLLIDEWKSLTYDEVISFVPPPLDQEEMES

MK2 (from UniProt P49137): the Kd (usually a measure of binding affinity in units of concentration) was 2.5 nM.
